{
  "source": "patent US9273304B2",
  "about": "“Inactivation method” (Thermo Fisher Scientific Baltics UAB, priority 2006, dated 2016)",
  "molecules": {"B1": {"name": "Pfu DNA polymerase modified with N-etoxycarbonyl-2,3-dimethylmaleinimide: Native Pfu DNA polymerase reversibly inactivated with N-ethoxycarbonyl-2,3-dimethylmaleinimide, molar ratios 1/200 and 1/800 (protein, UniProt P61875 1-775, looked up)", "DNA polymerase": "MILDVDYITEEGKPVIRLFKKENGKFKIEHDRTFRPYIYALLRDDSKIEEVKKITGERHGKIVRIVDVEKVEKKFLGKPITVWKLYLEHPQDVPTIREKVREHPAVVDIFEYDIPFAKRYLIDKGLIPMEGEEELKILAFDIETLYHEGEEFGKGPIIMISYADENEAKVITWKNIDLPYVEVVSSEREMIKRFLRIIREKDPDIIVTYNGDSFDFPYLAKRAEKLGIKLTIGRDGSEPKMQRIGDMTAVEVKGRIHFDLYHVITRTINLPTYTLEAVYEAIFGKPKEKVYADEIAKAWESGENLERVAKYSMEDAKATYELGKEFLPMEIQLSRLVGQPLWDVSRSSTGNLVEWFLLRKAYERNEVAPNKPSEEEYQRRLRESYTGGFVKEPEKGLWENIVYLDFRALYPSIIITHNVSPDTLNLEGCKNYDIAPQVGHKFCKDIPGFIPSLLGHLLEERQKIKTKMKETQDPIEKILLDYRQKAIKLLANSFYGYYGYAKARWYCKECAESVTAWGRKYIELVWKELEEKFGFKVLYIDTDGLYATIPGGESEEIKKKALEFVKYINSKLPGLLELEYEGFYKRGFFVTKKRYAVIDEEGKVITRGLEIVRRDWSEIAKETQARVLETILKHGDVEEAVRIVKEVIQKLANYEIPPEKLAIYEQITRPLHEYKAIGPHVAVAKKLAAKGVKIKPGMVIGYIVLRGDGPISNRAILAEEYDPKKHKYDAEYYIENQVLPAVLRILEGFGYRKEDLRYQKTRQVGLTSWLNIKKS", "modifications": "modified with dimethylmaleinimide reagent"}},
  "key": {"Taq DNA polymerase": {"target": "Taq DNA polymerase (Thermus aquaticus, UniProt P19821)", "sequence (P19821 whole entry)": "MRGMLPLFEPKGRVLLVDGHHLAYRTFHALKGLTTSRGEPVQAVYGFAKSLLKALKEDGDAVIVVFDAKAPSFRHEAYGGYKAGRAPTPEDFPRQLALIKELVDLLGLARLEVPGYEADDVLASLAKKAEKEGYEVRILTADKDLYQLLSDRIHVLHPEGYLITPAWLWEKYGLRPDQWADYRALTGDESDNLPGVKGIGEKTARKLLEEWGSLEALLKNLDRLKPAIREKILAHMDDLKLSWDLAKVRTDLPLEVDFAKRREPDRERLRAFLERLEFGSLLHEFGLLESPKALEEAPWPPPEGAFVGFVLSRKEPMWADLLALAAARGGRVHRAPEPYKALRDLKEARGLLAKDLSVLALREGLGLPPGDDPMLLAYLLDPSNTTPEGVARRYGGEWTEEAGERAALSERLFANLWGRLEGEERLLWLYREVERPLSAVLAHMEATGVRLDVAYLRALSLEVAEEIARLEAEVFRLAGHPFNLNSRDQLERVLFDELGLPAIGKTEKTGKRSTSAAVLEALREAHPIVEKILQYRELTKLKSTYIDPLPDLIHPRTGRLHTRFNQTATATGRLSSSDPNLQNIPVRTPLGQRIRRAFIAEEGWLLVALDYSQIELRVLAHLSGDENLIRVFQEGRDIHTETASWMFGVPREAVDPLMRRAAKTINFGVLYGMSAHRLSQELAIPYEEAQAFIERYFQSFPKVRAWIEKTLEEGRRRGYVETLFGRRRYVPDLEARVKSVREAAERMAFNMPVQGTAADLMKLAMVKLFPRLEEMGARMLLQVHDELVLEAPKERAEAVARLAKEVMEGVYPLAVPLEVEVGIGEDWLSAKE", "experiment": "Polymerase activity assay: incorporation of [3H]-dTTP into the polynucleotide adsorbed on DE-81 in 30 min at 70° C.", "format": "biochemical", "conditions": "aqueous solution", "procedure": "The measure of the enzyme activity was incorporation of [^3H]-dTTP into polynucleotide fraction. One unit of polymerase activity is defined as the enzyme amount which incorporates 10 nmoles of deoxyribonucleotides into the polynucleotide adsorbed on DE-81 in 30 min at 70° C.\nFor activity assays, Taq DNA polymerase was diluted up to 4 u/ml with the dilution buffer of the following composition: 20 mM Tris-HCl (pH 8.8 at 25° C.), 1 mM EDTA, 1 mM DTT, and BSA (0.1 mg/ml). Reactions were carried out at 70° C. for 30 min with 5 μl of the diluted enzyme in 50 μl of the reaction buffer of the following composition: 67 mM Tris-HCl (pH 8.8 at 25° C.), 50 mM NaCl, 6.7 mM MgCl2, 1 mM DTT, and BSA (0.1 mg/ml). The reaction buffer was supplemented with 0.2 mM dNTP, [3H]-dTTP (0.4 MBq/ml) and 0.75 mM activated DNA from calf thymus.\nActivity of the modified enzymes was measured either with the pre-incubation step, or without it, for 10 min at 95° C. in the pre-heating buffer of the following composition: 20 mM Tris-HCl (pH 8.25 at 25° C.), 100 mM KCl, 2 mM MgCl2, 0.5% Tween 20, 0.5% Nonidet P40, and 16% glycerol.\n(§1) Aliquots (35 μl) of the enzyme solution were mixed with 2.25 μl aliquots of the N-ethoxycarbonyl-2,3-dimethylmaleinimide solutions described above resulting in the following molar ratios of Taq DNA polymerase to N-ethoxycarbonyl-2,3-dimethylmaleinimide: 1/1280 1/640, 1/320, 1/160, 1/110, 1/80, 1/40. The mixtures were incubated for 20 hours at 4° C. to modify the Taq DNA polymerase. Control samples, in which the enzyme was left unmodified (e.g., the ratio was 1/0), were obtained by mixing the Taq DNA polymerase with a 2.25 μl aliquot of DMF. These control samples were incubated under the same conditions as the modified ones.\nThe samples of the unmodified Taq DNA polymerase and the modified Taq DNA polymerases were diluted 250-fold in the pre-heating buffer (see Example 2) and activities of the modified enzyme were measured both before heat-reactivation and after it, as described in the Example 2. Activities of both inactivated and heat-reactivated DNA polymerases were determined as described in the Example 2, and the data were normalized to activity of the unmodified Taq DNA polymerase\nAliquots (20.6 μl) of the diluted enzyme solution were mixed with 1 μl of N-isobutoxycarbonyl-2,3-dimethylmaleinimide solutions described above resulting in different molar ratios of Taq DNA polymerase to N-isobutoxycarbonyl-2,3-dimethylmaleinimide (1/320, 1/160, 1/80 and 1/40). The mixtures were incubated 20 hours at 4° C. to modify the Taq DNA polymerase. Control samples, in which the enzyme was left unmodified (e.g., the ratio was 1/0), were obtained by mixing the Taq DNA polymerase with a 1 μl aliquot of DMF. These control samples were incubated under the same conditions as the modified ones. The heat-reactivation of the modified enzymes was performed as described in the Example 3."}, "Pfu DNA polymerase": {"target": "T1, Pfu DNA polymerase (Pyrococcus furiosus, UniProt P61875)", "T1 construct": "Native Pfu DNA polymerase was used at initial concentration of 1.065 mg/ml", "T1 sequence (P61875 1-775)": "B1 DNA polymerase", "experiment": "Polymerase activity assay: incorporation of [3H]-dTTP into the polynucleotide adsorbed on DE-81 in 30 min at 50° C. or 72° C.", "format": "biochemical", "conditions": "aqueous solution", "procedure": "as §1, with “A set of N-ethoxycarbonyl-2,3-dimethylmaleinimide solutions (72 mM, 18 mM) was prepared by serial dilutions of the 720 mM stock in N,N dimethylformamide (DMF). Aliquots” for “Aliquots”, “(25” for “(35”, “1” for “2.25”, “Pfu” for “Taq”, “1/800, 1/200.” for “1/1280 1/640, 1/320, 1/160, 1/110, 1/80, 1/40.”\nThe samples of the unmodified Pfu DNA polymerase and the modified Pfu DNA polymerases were diluted in the pre-heating buffer (see Example 2) either 9-fold for measurements at 50° C., or 24-fold for measurements at 72° C. (see Example 2). Activities of the modified enzymes were measured either with the pre-incubation step, or without it, for 10 min at 95° C.\nFor activity assays, Pfu DNA polymerase was diluted up to 11 u/ml (91 u/ml for measurements at 50° C.) in the dilution buffer (see Example 2). Reactions were carried out either at 50° C., or at 72° C. for 30 min. Aliquots (5 μl) of the diluted enzyme were added to 50 μl of the reaction buffer of the following composition: 20 mM Tris-HCl (pH 8.8 at 25° C.), 10 mM (NH4)2SO4, 10 mM KCl, 2 mM MgCl2, 0.1% Triton X-100, and BSA (0.1 mg/ml) supplemented with, 0.2 mM dNTP, [3H]-dTTP (0.4 MBq/ml) and 0.75 mM activated DNA from calf thymus."}, "[1]": {"conditions": "molar ratio Taq DNA polymerase/N-iso-butoxycarbonyl-2,3-dimethylmaleinimide 1/40"}, "[2]": {"conditions": "molar ratio Taq DNA polymerase/N-iso-butoxycarbonyl-2,3-dimethylmaleinimide 1/80"}, "[3]": {"conditions": "molar ratio Taq DNA polymerase/N-iso-butoxycarbonyl-2,3-dimethylmaleinimide 1/160"}, "[4]": {"conditions": "molar ratio Taq DNA polymerase/N-iso-butoxycarbonyl-2,3-dimethylmaleinimide 1/320"}, "[5]": {"conditions": "molar ratio Pfu/N-etoxycarbonyl-2,3-dimethylmaleinimide 1/200"}, "[6]": {"conditions": "molar ratio Pfu/N-etoxycarbonyl-2,3-dimethylmaleinimide 1/800"}},
  "data": [
    {"molecule": "Taq DNA polymerase treated with N-iso-butoxycarbonyl-2,3-dimethylmaleinimide: Recombinant Taq DNA polymerase modified with N-isobutoxycarbonyl-2,3-dimethylmaleinimide in aqueous solution, molar ratios 1/40 to 1/320", "values": [
      {"measurement": "Activity at 70° C. (%) After 10 min. preheating at 95° C.", "setting": "Taq DNA polymerase; [1]", "result": "~90", "unit": "%"},
      {"measurement": "Activity at 70° C. (%) Without preheating at 95° C.", "setting": "Taq DNA polymerase; [1]", "result": "~50", "unit": "%"},
      {"measurement": "Activity at 70° C. (%) After 10 min. preheating at 95° C.", "setting": "Taq DNA polymerase; [2]", "result": "~100", "unit": "%"},
      {"measurement": "Activity at 70° C. (%) Without preheating at 95° C.", "setting": "Taq DNA polymerase; [2]", "result": "~40", "unit": "%"},
      {"measurement": "Activity at 70° C. (%) After 10 min. preheating at 95° C.", "setting": "Taq DNA polymerase; [3]", "result": "~80", "unit": "%"},
      {"measurement": "Activity at 70° C. (%) Without preheating at 95° C.", "setting": "Taq DNA polymerase; [3]", "result": "~30", "unit": "%"},
      {"measurement": "Activity at 70° C. (%) After 10 min. preheating at 95° C.", "setting": "Taq DNA polymerase; [4]", "result": "~40", "unit": "%"},
      {"measurement": "Activity at 70° C. (%) Without preheating at 95° C.", "setting": "Taq DNA polymerase; [4]", "result": "~10", "unit": "%"}
    ]},
    {"molecule": "B1", "values": [
      {"measurement": "Activity at 50° C. (%) After 10 min. preheating at 95° C.", "setting": "Pfu DNA polymerase; [5]", "result": "~100", "unit": "%"},
      {"measurement": "Activity at 50° C. (%) Without preheating at 95° C.", "setting": "Pfu DNA polymerase; [5]", "result": "~20", "unit": "%"},
      {"measurement": "Activity at 72° C. (%) After 10 min. preheating at 95° C.", "setting": "Pfu DNA polymerase; [5]", "result": "~100", "unit": "%"},
      {"measurement": "Activity at 50° C. (%) After 10 min. preheating at 95° C.", "setting": "Pfu DNA polymerase; [6]", "result": "~100", "unit": "%"},
      {"measurement": "Activity at 50° C. (%) Without preheating at 95° C.", "setting": "Pfu DNA polymerase; [6]", "result": "~0", "unit": "%"},
      {"measurement": "Activity at 72° C. (%) After 10 min. preheating at 95° C.", "setting": "Pfu DNA polymerase; [6]", "result": "~90", "unit": "%"}
    ]}
  ]
}
